B1: Peptide B (human CaMKII-α 290-309, unphosphorylated, unlabeled) [human] / human CaMKII-α hub domain [human] (parent complex)
chain 1: LKKFNARRKLKGAILTTMLA
chain 2: VRKQEIIKVTEQLIEAISNGDFESYTKMCDPGMTAFEPEALGNLVEGLDFHRFYFENLWSRNSKPVHTTILNPHIHLMGDESACIAYIRITQYLDAGGIPRTAQSEETRVWHRRDGKWQIVHFHRSGAPSV

Variants of: B1
Test: fluorescence polarisation competition; point read at 500 µM unlabeled peptide; 2 nM labeled peptide A bound to 30 µM hub; lower polarization = more labeled peptide competed off; parent: 150; read off a plot

response	Variant
~160	chain 1 LKKFNAERKLKGAILTTMLA [chain 1 R7E]
~210	chain 1 LKEFNAERKLEGAILTTMLA [chain 1 K3E, chain 1 R7E, chain 1 K11E]
~180	chain 1 LKKFNARRKLEGAILTTMLA [chain 1 K11E]

Source: paper PMC4859805, “Molecular mechanism of activation-triggered subunit exchange in Ca^2+/calmodulin-dependent protein kinase II” (eLife, 2016)
